Results published in US20260124245A1 (UNIVERSITY OF NORTH CAROLINA AT CHAPEL HILL, published 2026).
Ends that are not written are not given here.

Molecular target: T1, Base Leucine Zipper (B-LZ)
T1 construct: In FRET it carried an AF555 label; In the cell and EV assays it was conjugated to the surface through Sulfo-SMCC; also called SynZip2
Experiment: titration ELISA on coated B-LZ, anti-FLAG-HRP detection
Protocol: Enzyme-linked immunosorbent assay (ELISA). Nunc MaxiSorp 96-well plates were coated with Base-Leucine Zipper (B-LZ) at 2.5 μg/mL and incubated overnight at 4° C. The plate was thoroughly washed with 0.1% TBS-Tween (TBST). The wells were washed with 0.1% PBST and then blocked with BSA blocking buffer for 1 h at room temperature before incubation with complementary leucine zipper (C-LZ) concentrations ranging from 1 μM to […] at room temperature for 2 hours before washing. Washes were followed by the addition of 100 μL of anti-FLAG horseradish peroxidase (HRP)-linked monoclonal antibody (1:10,000 mAb, #A8592, Sigma Aldrich, St. Louis, MO) for 1 h at room temperature with rocking. The wells were washed with 0.1% PBST followed by the addition of TMB-ELISA substrate. After a 10 min incubation, 2 M H₂SO₄ was added to stop the reaction. The absorbance was measured at 450 nm and 570 nm with a SpectraMax M5 plate reader (Molecular Devices, Sunnyvale, CA).
The proteins were then expressed for in vitro testing. Using titration ELISA, the binding affinity of each sequence was tested for its affinity to the base leucine zipper (B-LZ). […] This decision was based on its high binding affinity and high expression levels in E. coli. […]

fold improvement in B-LZ binding compared with C-LZ 10 nM: 5 fold
B1: NIS1 (high-affinity complementary leucine zipper, HiA C-LZ) (designed binder)
chain: NLVAQLENEVASLENENETLKNKNLQKKNLIAYLEQEIANLRKKIEG
modifications: also: purification and detection tags and conjugation cysteine, position not given here
notes: NIS1 is a mutant of C-LZ 10 nM; not shown: purification and detection tags and conjugation cysteine (Ni-NTA purified, anti-FLAG detected, thiol conjugated); letter
